This passage reports Kd results from paper PMC4117426.

For this experiment, the target named is T1, 6×His-SlmA (E. coli), P0C093.
T1 chain: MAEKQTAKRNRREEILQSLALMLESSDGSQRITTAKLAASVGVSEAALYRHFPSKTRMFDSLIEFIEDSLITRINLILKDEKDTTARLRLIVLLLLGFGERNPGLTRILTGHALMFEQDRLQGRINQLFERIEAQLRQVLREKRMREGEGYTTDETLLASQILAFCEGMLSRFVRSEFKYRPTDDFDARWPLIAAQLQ
Briefly: BLI; biotinylated SBS17-30mer (50 nM) on streptavidin tips, loaded with 4 µM SlmA or SlmA mutant; FtsZ or variants (4 µM, preincubated with 1 mM GDP) or peptides (up to 320 µM) in solution; 1× Pol buffer, room temperature. The settings on record: remark: other sources report otherwise. For orientation: BLI is a label-free optical method that tracks binding on a fibre tip over time.

A word on the Kd: it is the free concentration of one partner at which half of the binding sites on the other are occupied at equilibrium, for simple one-to-one binding. Molecule DYLDIPAFLRKQAD [FtsZ C-terminal tail peptide (Ztail-WT)] had a Kd of 81 µM.
